The values that follow come from patent US8536113B2, “EGFR binding peptides and uses thereof” (Janssen Biotech, Inc., priority 2006, dated 2013).

Experiment [1] deals with T1, sEGFR-MMB (Homo sapiens, UniProt P00533).
T1 construct: made in house; host or cells: Human Embryonic Kidney cells (293E)
Briefly: Phage ELISA screening of panning hits. It counts as binding. The note with it: phage clone culture supernatant; background typically <200 units. The procedure:
Phage Screening. Individual phage clones from selections were amplified and screened for EGFR binding by phage ELISA. To amplify pIII phage for screening, phage eluates from round 3 were diluted appropriately and plated with a lawn of XL-1 Blue to yield isolated single plaques. 24 plaques from each pool were picked and inoculated into a culture of XL-1 Blue host cells. The cultures were shaken at 37° C. for 4.5 hr and the cells were removed by centrifugation. To amplify pIX-displaying phagemid clones, phage eluates were infected into XL-1 Blue and plated onto LB-ampicillin plates. Individual colonies were cultured in 1 ml volumes and rescued with VCS-M13 helper phage. Bacterial cells were removed from phage cultures by centrifugation at (2250×g, 7 min) and the phage-containing supernatant was saved.
The protein solution was removed and wells were rinsed twice with Tris-Buffered Saline containing 0.05% Tween-20 (TBS-T) using a plate washer (Embla). The wells were blocked with Starting Block in TBS for 1 hr at room temperature and rinsed twice with TBS-T. An equal volume of phage supernatant and Starting Block in TBS were incubated in the wells for 1 hr at room temperature, and the wells were rinsed five times with TBS-T. Anti-M13/horseradish peroxidase conjugate (Amersham), diluted 1:5000 in Starting Block in TBS, was added into the wells and incubated for 1 hour at room temperature, and then the wells were rinsed five times with TBS-T. Finally, chemiluminescent peroxidase substrate (Roche) was added to the wells, and chemiluminescence was measured on a Tecan plate reader.
Sequences and ELISA signal (background typically <200 units) are given, along with a consensus sequence, if any. Cysteines that are fixed in the library design are underlined.
(In general: An ELISA detects its analyte on a solid surface through an enzyme-linked reagent.)

Experiment [2] relates to A431 cells. Description: Flow cytometry of phage binding to tumor cells. It counts as cell-based, human. The note with it: for binding to A431 tumor cells: anti-phage-FITC antibody, 4° C. The procedure: (§1) Flow cytometry. To evaluate whether the selected peptides from phage display can bind to tumor cells that overexpress EGFR, A431 cells (epidermoid cancer) or an EGFR negative tumor cells, MCF-7 (breast carcinoma) were tested in a flow cytometry assay using fluorescence detection (FACS). For P145, PP146 and their control phage, 2.5×10^5 A431 cells were resuspended in 25 μl of flow staining buffer (dPBS with 1% BSA, 0.09% sodium azide) and incubated with 25 μl of phage clones for 1 hour at 4° C. […] Cells were washed two times with flow staining buffer and then incubated with 0.5 μg of mouse anti M13/fd/F1 filamentous phages monoclonal antibody conjugated to FITC (Fitzgerald Industries International, Inc. Concord, Mass.) for 45 minutes at 4° C. Cells were washed two times with flow staining buffer and acquired by FACSCalibur (BD, Franklin Lakes, N.J.) to detect bound phages on tumor cell surface. Results.
(§2) A431 cells (epidermoid cancer) which overexpress EGFR and EGFR-negative tumor cells, MCF-7 (breast carcinoma) were tested in a flow cytometry assay. Tumor cells (A431 and MCF-7) were harvested with 0.25% tyrpsin-EDTA and washed twice with FACS staining buffer (dPBS with 1% BSA, 0.09% sodium azide). […] After binding at 4° C., cells were washed twice with FACS staining buffer to remove unbound phage and then incubated with 0.5 μg of mouse anti-M13 monoclonal antibody conjugated to FITC (Fitzgerald Industries International, Inc. Concord, Mass.) for 1 hour at 4° C. Mouse anti-M13-FITC incubated with cells without phage was used as background binding. Cells were washed twice with FACS staining buffer to remove unbound detection antibody.

Experiment [3] concerns MCF-7. Briefly: Flow cytometry of phage binding to EGFR negative tumor cells. It counts as cell-based, human. The settings on record: EGFR positive versus EGFR negative cells. The procedure:
as §1, §2
For orientation: Flow cytometry measures light scatter and fluorescence of single cells or particles in a stream.

Bridges are numbered along the chain shown (N, C = ends). Where no end group is shown, it is not given here.

“10 (YRLFVDESIFFCTRL; S15 library, which displays a random linear 15-mer) [compound 10]”: the ELISA signal in experiment [1] worked out at 3078 units.
In turn, “11 (ELGLPTLLCWPTDTL; S15 library, which displays a random linear 15-mer) [compound 11]” had an ELISA signal in experiment [1] of 9380 units.
In experiment [1], “12 (VSGILPILVCHPAAT; S15 library, which displays a random linear 15-mer) [compound 12]” showed an ELISA signal of 1107 units.
With “14 (HVSLQSLPELICVVS; S15 library, which displays a random linear 15-mer) [compound 14]”, in experiment [1], the ELISA signal is 1362 units.
The same measure, in the same setting: the value for “15 (NWFSLPTLLCFPLNP; S15 library, which displays a random linear 15-mer) [compound 15]” was 3669 units; that for “16 (STITSLPTLQCWPIL; S15 library, which displays a random linear 15-mer) [compound 16]” was 13332 units; that for “17 (PIDDESLPVLYCVTS; Random peptide) [compound 17]” was 1785 units.
On the same count and under the same terms, the same measure for “18 (PIFSSLPVLYCTSQL; S15 library, which displays a random linear 15-mer) [compound 18]”: 1425 units; for “19 (GADTLPDLLCWESSL; S15 library, which displays a random linear 15-mer) [compound 19]”: 5722 units; for “20 (TVFTLPELVCVVAGT; S15 library, which displays a random linear 15-mer) [compound 20]”: 1515 units.
On the same count and under the same terms, the same measure for “21 (LPDLICAVDSGTSGA; S15 library, which displays a random linear 15-mer) [compound 21]”: 1161 units; for “23 (AGCIAFVDVVYCAR; Peptide family identified from the S18 library) [compound 23]”: 6377 units.
Regarding “24 (AKCIAFGNSVYCLN; Peptide family identified from the S18 library) [compound 24]”, the ELISA signal in experiment [1] is 31524 units.
“25 (RDCIIFDKTVYCVI; Peptide family identified from the S18 library) [compound 25]” registered an ELISA signal in experiment [1] of 17060 units.
With “26 (KHCILFEKTVYCAK; Peptide family identified from the S18 library) [compound 26]”, in experiment [1], the ELISA signal is recorded as 9111 units.
In turn, “27 (DSCIQFANLLYCAI; Peptide family identified from the S18 library) [compound 27]” showed an ELISA signal in experiment [1] of 53162 units.
In experiment [1], “28 (TDCIRFGVLWYCLV; Peptide family identified from the S18 library) [compound 28]” had an ELISA signal of 4746 units.
The same measure, in the same setting: the value for “29 (RACITFGKVVYCEV; Peptide family identified from the S18 library) [compound 29]” was 30741 units; that for “30 (AYCSFVAGDLVCQV; Peptide family identified from the S18 library) [compound 30]” was 19792 units; that for “31 (TDCVIFGLETYCLR; disulfide 3-12 (inferred)) [compound 31]” was 37925 units.
Consider “32 (SDCVLFGSKLFCSA; families were identified from the S18 library) [compound 32]”, for which the ELISA signal in experiment [1] was determined as 35327 units.
In the case of “33 (TDCVRFGETIYCIV; Peptide family identified from the S18 library) [compound 33]”, the ELISA signal in experiment [1] was determined as 13291 units.
For the substance “34 (YDCVSFGAVAYCPQ; Peptide family identified from the S18 library) [compound 34]”, the ELISA signal in experiment [1] is recorded as 3205 units.
“35 (RGCVVFGDNIYCIV; Peptide family identified from the S18 library) [compound 35]”: in experiment [1], the ELISA signal came to 21963 units.
“37 (MICYLVDSGNIICYK; Peptide family identified from the S19 library) [compound 37]”: the ELISA signal in experiment [1] came out at 8806 units.
The same measure, in the same setting: the same measure for “38 (YDCMIRADGSLICWC; Peptide family identified from the S19 library) [compound 38]”: 1286 units; for “39 (GPCVLIRDYYLLCLE; disulfide 3-13 (inferred)) [compound 39]”: 13951 units.
Substance “40 (AFCRLDFNQWLTCLV; Peptide family identified from the S19 library) [compound 40]” had an ELISA signal in experiment [1] of 2581 units.
Consider “41 (CDCREAVSASLVCRY; Peptide family identified from the S19 library) [compound 41]”, for which, in experiment [1], the ELISA signal was 3347 units.
Still for that read-out and setting: the value for “43 (PTCDSATRRVLTICAD; Peptide family identified from the S20 library) [compound 43]” was 5420 units; that for “44 (WMCFLEGYGASLMCQC; Peptide family identified from the S20 library) [compound 44]” was 4795 units.
Regarding “45 (DSCCSFLTDGTVVCSL; Peptide family identified from the S20 library) [compound 45]”, in experiment [1], the ELISA signal is reported as 9544 units.
On to “46 (YICTPSDIDSWYICYL; Peptide family identified from the S20 library) [compound 46]”, for which the ELISA signal in experiment [1] amounted to 6615 units.
“47 (SVCVGTAFPGWMVCGP; Peptide family identified from the S20 library) [compound 47]” gave an ELISA signal in experiment [1] of 4771 units.
For the substance “49 (LLCATTSFRDWFVCFT; Peptide family identified from the S20 library) [compound 49]”, the ELISA signal in experiment [1] is 4512 units.
As to “DACTMVFLWCSL (S16 and S17 hits Phage 177) [P177]”, in experiment [1], the ELISA signal is recorded as 8655 units.
The substance “KTCVSTTFDLWFVCFA (disulfide 3-14 (inferred)) [P176]” showed an ELISA signal in experiment [1] of 37440 units. In addition, in experiment [2], the “binding to A431 relative to positive control EGF phage” value is listed as “comparable to that by a positive control phage” and the “binding to A431 tumor cells” value is reported as “displayed binding”.
Substance “LPDDSLPELICKVRG (S15 library, which displays a random linear 15-mer) [P175]” yielded an ELISA signal in experiment [1] of 6790 units.
“RWCYFWWITICEL (S16 and S17 hits Phage 178) [P178]” showed an ELISA signal in experiment [1] of 7913 units.
In the case of “SGCLDALWQCVY (S16 and S17 hits Phage 174) [P174]”, the ELISA signal in experiment [1] came out at 34641 units. Also, in experiment [2], the “binding to A431 relative to positive control EGF phage” value is “comparable to that by a positive control phage” and the “binding to A431 tumor cells” value is “displayed binding”. Besides, in experiment [3], the “binding to A431 compared with MCF-7” value is on record as “greater to A431 than to MCF-7”.
For “TLCRSFFHPLCYA (Sequences of EGFR-Binding Peptides from pIII phage library (CNL5 P146))”, in experiment [2], the “binding to A431 relative to positive control EGF phage” value is “weaker than that exhibited by a positive control phage” and the “binding to A431 tumor cells” value is recorded as “displayed binding”.
For the substance VLCHRYYHPICYT [P145], in experiment [2], the “binding to A431 relative to positive control EGF phage” value is “weaker than that exhibited by a positive control phage” and the “binding to A431 tumor cells” value is “displayed binding”. Also, in experiment [3], the “binding to A431 compared with MCF-7” value is “greater binding to A431 than MCF-7 cells”.
